What was measured:
[1] = tested on: PGE2 / human EP4 receptor in HEK293 Gα16 cells; assay: EP4 bioassay (Ca++ flux, neutralization of PGE2); format: cell-based
In short: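 Ca++ flux (FLIPR) in HEK293 Gα16 cells stably expressing human EP4, loaded with Ca++-sensitive dye for 90 min. PGE2, alone or pre-incubated with anti-PGE2 antibody, DVD-Ig or isotype control, was added in FLIPR buffer (HBSS, 20 mM HEPES, 0.1% BSA, 2.5 mM probenecid). EC50 derived from PGE2 dose-response.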

[2] = tested on: desired target antigen; assay: Direct Bind ELISA of parent antibodies and DVD-Ig constructs; format: binding; details: C-terminal variable domain NGF, read-out: Direct Bind ELISA C-terminal VD EC50
Protocol: Enzyme Linked Immunosorbent Assays to screen for antibodies that bind a desired target antigen were performed as follows. […] Plates were washed four times with PBS containing 0.02% Tween 20. Plates were blocked by the addition of 300 μL/well blocking solution (non-fat dry milk powder, various retail suppliers, diluted to 2% in PBS) for ½ hour at room temperature. Plates were washed four times after blocking with PBS containing 0.02% Tween 20.
Wells were washed four times with PBS containing 0.02% Tween 20.
One hundred microliters of antibody or DVD-Ig preparations diluted in blocking solution as described above was added to the desired target antigen plate or desired target antigen/FC fusion plate or the anti-polyHistidine antibody/His tagged desired target antigen plate prepared as described above and incubated for 1 hour at room temperature.
Plates were washed 4 times with PBS containing 0.02% Tween 20.
One hundred microliters of enhanced TMB solution (Neogen Corp. #308177, K Blue, Lexington, Ky.) was added to each well and incubated for 10 minutes at room temperature. The reaction was stopped by the addition of 50 μL 1N sulphuric acid. Plates were read spectrophotometrically at a wavelength of 450 nm.

[3] = PGE2-biotinamide ELISA (PGE2 binding); details: PGE2 VD in N-terminal position, read-out: Direct Bind ELISA N-terminal VD EC50
In short: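 Antibody or DVD-Ig (1 µg/ml) captured on anti-host Fc IgG-coated plates for 1 h at room temperature, then titrated with PGE2-biotinamide serially diluted from 30 nM for 1 h. Binding detected with streptavidin-polyHRP and TMB, absorbance read at 450 nm; EC50 from the titration curve.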

[4] = 3H-PGE2 ELISA (PGE2 binding affinity)
Protocol: Alternatively, prostaglandin binding screen for antibodies or DVD-Ig molecules can be determined using a ^3H-PGE2 ELISA. Plates were coated at 50 μl/well with 5 μg/ml of goat anti-human IgG (Fc) (Thermo Scientific #31170, Hudson, N.H.) or goat anti-mouse IgG (Fc) (Thermo Scientific #31125, Hudson, N.H.) in PBS and incubated overnight at 4° C. The following day plates were flicked and blotted dry. Plates were then blocked with 200 μL/well of Superblock (Thermo Scientific #37515, Hudson, N.H.), for 1 hour at room temperature. Plates were flicked and blotted dry. Monoclonal antibodies were diluted to 0.04 μg/ml in PBST (Abbott Bioresearch Center, Worcester, Mass.)/10% Superblock and 50 uL of each antibody or DVD-Ig was added to each well of the pre-blocked ELISA plate at 2 ng/well and incubated for 1 hour at room temperature. Wells were washed 3 times with PBS+0.1% Tween-20. A serial 3 fold titration of ^3H-PGE2 (Perkin Elmer #NET-428, Waltham, Mass.) was prepared in PBST+10% Superblock. Fifty microliters of the ^3H-PGE2 solution was then added to each well of the plate and incubated for 1 hour at room temperature. Wells were washed 6 times with PBST+10% Superblock and 50 μL of scintillation fluid (Perkin Elmer #6013621, Waltham, Mass.) added to each well. Plates were read using the TopCount reader (Perkin Elmer, Waltham, Mass.) with a 5 minutes count delay. EC50 number was determined using GraphPad Prism 5 (GraphPad Software, La Jolla, Calif.).

[5] = tested on: C57.BL/6 mice, carrageenan-induced footpad edema; assay: Carrageenan-induced footpad edema model; format: in vivo, mouse; details: 10 mg/kg
Protocol: Carrageenan-Induced Footpad Edema is an acute rodent model of innate immune function. Intradermal (ID) injection of an inflammatory agent causes a rapid influx of neutrophils and fluid edema, which peaks at approximately 4 hours, followed by an influx of macrophages and monocytes, which peaks at approximately 48 hours. C57.BL/6 mice (8-10-week-old, Jackson Laboratories, Bar Harbor, Me.) were injected ID in the rear footpad with 30 μL of either PBS (left) or λ-carrageenen (Sigma Aldrich, St. Louis, Mo.) in PBS (right) at a concentration of 5.0 mg/mL (150 μg/mouse). […] Significant difference for paw thickness was determined by comparing mean paw swelling for each treatment group to vehicle in a Student's two-tailed t-test.
The endpoint measured was the difference in paw swelling (edema) between right and left paws 4 hours after treatment.

[6] = tested on: human TNFα transgenic B6.Cg(SJL)-Tg(TNF) N21+ mice; assay: Human TNFα transgenic induced arthritis model; format: in vivo, mouse; details: PGE2 blockade
Protocol: Human TNFα transgenic B6.Cg(SJL)-Tg(TNF) N21+ mice (40 male and 40 females) (Taconic, Hudson, N.Y.) at 4 weeks age were divided into 10 groups of 8 mice (4 male and 4 females/group). Each week, starting from week 5 until week 12 of age the morphology of the rear ankle joints of the mice were evaluated and scored for signs and symptoms of arthritis. Arthritic scores were assigned as follows. • 0=no arthritis (normal appearance and flexion) • 1=mild arthritis (joint distortion) • 2=moderate arthritis (swelling, joint deformation); and • 3=severe arthritis (ankylosis detected on flexion and severely impaired movement)
Animals were randomized to achieve approximately similar mean arthritic score (MAS) for all groups at week 9 at first signs of symptoms. Animals were then treated i.p. twice a week starting from week 10 of age until week 12 of age. Mice in group 1 served as untreated control were administered PBS.

[7] = Dynamic light scattering; format: physicochemical; details: 2 mg/mL in PBS
Protocol: Samples were centrifuged at 10,000 RPM for 10 minutes before measured on DynaPro-801 Dynamic light scattering system.

B1: DVD163: DVD-Ig construct listed in Table 4 (antibody)
VH: EVQLVQSGAEVKKPGASVKVSCKASGYTFTKYWLGWVRQAPGQGLEWMGDIYPGYDYTHYNEKFKDRVTLTTDTSTSTAYMELRSLRSDDTAVYYCARSDGSSTYWGQGTLVTVSSASTKGPQVQLQESGPGLVKPSETLSLTCTVSGFSLIGYDLNWIRQPPGKGLEWIGIIWGDGTTDYNSAVKSRVTISKDTSKNQFSLKLSSVTAADTAVYYCARGGYWYATSYYFDYWGQGTLVTVSS
VL: DVLMTQTPLSLPVTPGEPASISCTSSQNIVHSNGNTYLEWYLQKPGQSPQLLIYKVSNRFSGVPDRFSGSGSGTDFTLKISRVEAEDVGVYYCFQVSHVPYTFGGGTKVEIKRTVAAPDIQMTQSPSSLSASVGDRVTITCRASQSISNNLNWYQQKPGKAPKLLIYYTSRFHSGVPSRFSGSGSGTDFTFTISSLQPEDIATYYCQQEHTLPYTFGQGTKLEIKR
In the case of B1, the EC50 ([1]; PGE2 VD in N-terminal position, EP4 bioassay, Ca++ flux, read-out: N-terminal VD PGE2 Neutralization EC50) is reported as 0.245 nM, the EC50 [2] is reported as over 10000 nM and the EC50 [3] is reported as 0.71 nM.

B2: 2B5-8.0: murine anti-PGE2 antibody clone, VH SEQ ID 82, VL SEQ ID 83 (antibody, V domains shown)
VH: QVQLQQSGPELVRPGSSVKISCKASGYTFTKYWLGWVKQRPGHGLEWIGDIYPGYDYTHYNEKFKDKATLTVDTSSSTAYMQLSSLTSEDSAIYYCARSDGSSTYWGQGTLVTVSA
VL: DVLMTQTPLSLPVSLGDQASISCTSSQNIVHSNGNTYLEWYLQRPGQSPKLLIYKVSNRFSGVPDRFSGSGSGTVFTLKISRVEAEDLGVYYCFQVSHVPYTFGGGTKLEIKR
In the case of B2, the Kd [4] is reported as 0.334 nM, the IC50 ([1]; EP4 assay) is reported as 0.02 nM and the “maximal inhibition of paw swelling” value ([5]; IP 18 hours prior to carrageenan, 4 hours) is reported as 40-50%. For the same molecule, the “% Inhibition” value ([5]; i.p.) was 38 ± 4.6%, the “Δ Paw Swelling” value ([5]; i.p., 4 hours post carrageenan) was 0.529 ± 0.04 mm and the “effect on disease progression” value [6] was “no significant effect”.

B3: Hu2B5.7: humanized anti-PGE2 antibody, VH SEQ ID 74, VL SEQ ID 75 (antibody, V domains shown)
VH: EVQLVQSGAEVKKPGASVKVSCKASGYTFTKYWLGWVRQAPGQGLEWMGDIYPGYDYTHYNEKFKDRVTLTTDTSTSTAYMELRSLRSDDTAVYYCARSDGSSTYWGQGTLVTVSS
VL: DVLMTQTPLSLPVTPGEPASISCTSSQNIVHSNGNTYLEWYLQKPGQSPQLLIYKVSNRFSGVPDRFSGSGSGTDFTLKISRVEAEDVGVYYCFQVSHVPYTFGGGTKVEIKR
B3 showed a hydrodynamic radius [7] of 5.36 nm.

— patent US8822645B2, “Prostaglandin E2 dual variable domain immunoglobulins and uses thereof” (AbbVie Inc., priority 2008, dated 2014)
